From publication PMC2064158 (The Journal of Cell Biology, 2006)

B2: ScMad2^wt (recombinant S. cerevisiae Mad2, wild type) (natural protein)
chain: MSQSISLKGSTRTVTEFFEYSINSILYQRGVYPAEDFVTVKKYDLTLLKTHDDELKDYIRKILLQVHRWLLGGKCNQLVLCIVDKDEGEVVERWSFNVQHISGNSNGQDDVVDLNTTQSQIRALIRQITSSVTFLPELTKEGGYTFTVLAYTDADAKVPLEWADSNSKEIPDGEVVQFKTFSTNDHKVGAQVSYKY

Assays:
[1] = target: B2; assay: SEC
[2] = target: C-Mad2^wt–Cdc20^195–211 complex (S. cerevisiae, UniProt P40958;P26309); assay: SEC
[3] = target: B2; assay: pull-down
[4] = target: T1, ScMad2^RQEA (recombinant, Arg126-Glu/Gln127-Ala) (S. cerevisiae, UniProt P40958 1-196, R126E | Q127A); assay: ITC
T1 sequence: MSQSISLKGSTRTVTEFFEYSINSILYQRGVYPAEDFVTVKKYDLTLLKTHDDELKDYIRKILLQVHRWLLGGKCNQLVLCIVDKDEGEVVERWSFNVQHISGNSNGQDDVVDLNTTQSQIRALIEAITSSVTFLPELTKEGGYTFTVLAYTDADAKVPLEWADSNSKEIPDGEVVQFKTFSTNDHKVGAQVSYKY

AlexaFluor488-ScMad2^wt = target: T2, AlexaFluor488-ScMad2^wt (S. cerevisiae, UniProt P40958 1-196, AlexaFluor488 succimidyl ester reactive dye, covalent, final dye/protein ratio ~0.5); assay: SEC
T2 sequence: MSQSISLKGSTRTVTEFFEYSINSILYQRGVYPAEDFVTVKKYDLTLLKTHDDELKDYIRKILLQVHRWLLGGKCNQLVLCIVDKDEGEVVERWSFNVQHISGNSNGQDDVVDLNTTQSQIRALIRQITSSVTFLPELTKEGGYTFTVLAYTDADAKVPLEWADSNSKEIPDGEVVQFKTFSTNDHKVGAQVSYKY

AlexaFluor488-HsMad2^wt = AlexaFluor488-HsMad2^wt (human, UniProt Q13257 1-205, AlexaFluor488, covalent); assay: SEC
AlexaFluor488-HsMad2^wt, sequence (Q13257 whole entry): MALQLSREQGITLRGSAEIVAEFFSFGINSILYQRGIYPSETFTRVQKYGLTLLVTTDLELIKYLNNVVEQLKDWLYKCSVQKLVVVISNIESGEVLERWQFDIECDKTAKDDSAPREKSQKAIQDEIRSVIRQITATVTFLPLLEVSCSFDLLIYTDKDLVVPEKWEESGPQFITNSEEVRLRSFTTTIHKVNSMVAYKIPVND

B1: ScMad2^ΔC (recombinant, six residues deleted from the C terminus) (domain or fragment)
chain: MSQSISLKGSTRTVTEFFEYSINSILYQRGVYPAEDFVTVKKYDLTLLKTHDDELKDYIRKILLQVHRWLLGGKCNQLVLCIVDKDEGEVVERWSFNVQHISGNSNGQDDVVDLNTTQSQIRALIRQITSSVTFLPELTKEGGYTFTVLAYTDADAKVPLEWADSNSKEIPDGEVVQFKTFSTNDHKVGA
[1]
  binding result: binds

## B2
[2]
  percent of total Mad2 in the dimer peak at a 4:1 Mad2/Cdc20^195–211 ratio: ~50%

## IVFKQNVAEACGLDMNKRILQYMPEPP (domain or fragment) [GST-ScCdc20^184–210]
[3]
  binding result: binds

## GLDMNKRILQYMPEPPK [ScCdc20^195–211 synthetic peptide]
[4]
  binding result: binds
AlexaFluor488-ScMad2^wt
  binding result: binds

## QLLQEKLEKLTKLKEKKIRILQLRDGPF (domain or fragment) [GST-ScMad1^563–590]
[3]
  binding result: binds

## EHQKAWALNLNGFDVEEAKILRLSGKPQ [HsCdc20^111–138 synthetic peptide]
AlexaFluor488-HsMad2^wt
  binding result: binds
